What all share (test): Kd (EC50 corrected by depletion factor)
One data set has as its target T1, LSM1 (UniProt O15116).
T1 sequence: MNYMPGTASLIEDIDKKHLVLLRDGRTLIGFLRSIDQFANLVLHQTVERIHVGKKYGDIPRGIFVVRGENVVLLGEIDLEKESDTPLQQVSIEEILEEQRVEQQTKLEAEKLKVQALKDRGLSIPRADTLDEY
In short, it runs like this:
(§1)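 To obtain EC50, data were fitted with a four-parameter log-logistic model; Kd was then EC50 multiplied by a protein-dependent depletion factor. Beforehand, free RNA oligos (0 nM to 30 μM) were pre-incubated with HEK293-FT lysate (2.5 mg protein/well) for 1 h at 4°C. The lysate then spent 30 min at 4°C with the same 5′-amino-C6 oligos coupled to NHS-Sepharose beads, and bound proteins were quantified by label-free LC-MS/MS, normalised to the control.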

For a further data set, the target named is T2, GPATCH3 (UniProt Q96I76).
T2 sequence: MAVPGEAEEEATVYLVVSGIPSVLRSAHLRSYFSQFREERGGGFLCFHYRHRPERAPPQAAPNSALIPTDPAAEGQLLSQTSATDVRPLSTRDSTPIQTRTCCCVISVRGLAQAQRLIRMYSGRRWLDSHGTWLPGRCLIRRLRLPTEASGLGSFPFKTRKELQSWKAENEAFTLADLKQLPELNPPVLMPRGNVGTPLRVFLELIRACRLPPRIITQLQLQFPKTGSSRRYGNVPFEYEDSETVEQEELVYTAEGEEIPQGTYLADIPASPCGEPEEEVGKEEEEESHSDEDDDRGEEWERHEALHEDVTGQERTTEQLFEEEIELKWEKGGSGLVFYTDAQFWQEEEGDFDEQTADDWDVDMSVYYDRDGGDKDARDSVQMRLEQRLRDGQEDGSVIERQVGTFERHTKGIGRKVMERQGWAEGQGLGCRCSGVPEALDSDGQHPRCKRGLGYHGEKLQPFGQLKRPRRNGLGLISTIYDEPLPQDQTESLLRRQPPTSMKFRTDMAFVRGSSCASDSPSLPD
The method in brief: as §1

The target of a further data set is T3, SYMPK (UniProt Q92797).
T3 sequence: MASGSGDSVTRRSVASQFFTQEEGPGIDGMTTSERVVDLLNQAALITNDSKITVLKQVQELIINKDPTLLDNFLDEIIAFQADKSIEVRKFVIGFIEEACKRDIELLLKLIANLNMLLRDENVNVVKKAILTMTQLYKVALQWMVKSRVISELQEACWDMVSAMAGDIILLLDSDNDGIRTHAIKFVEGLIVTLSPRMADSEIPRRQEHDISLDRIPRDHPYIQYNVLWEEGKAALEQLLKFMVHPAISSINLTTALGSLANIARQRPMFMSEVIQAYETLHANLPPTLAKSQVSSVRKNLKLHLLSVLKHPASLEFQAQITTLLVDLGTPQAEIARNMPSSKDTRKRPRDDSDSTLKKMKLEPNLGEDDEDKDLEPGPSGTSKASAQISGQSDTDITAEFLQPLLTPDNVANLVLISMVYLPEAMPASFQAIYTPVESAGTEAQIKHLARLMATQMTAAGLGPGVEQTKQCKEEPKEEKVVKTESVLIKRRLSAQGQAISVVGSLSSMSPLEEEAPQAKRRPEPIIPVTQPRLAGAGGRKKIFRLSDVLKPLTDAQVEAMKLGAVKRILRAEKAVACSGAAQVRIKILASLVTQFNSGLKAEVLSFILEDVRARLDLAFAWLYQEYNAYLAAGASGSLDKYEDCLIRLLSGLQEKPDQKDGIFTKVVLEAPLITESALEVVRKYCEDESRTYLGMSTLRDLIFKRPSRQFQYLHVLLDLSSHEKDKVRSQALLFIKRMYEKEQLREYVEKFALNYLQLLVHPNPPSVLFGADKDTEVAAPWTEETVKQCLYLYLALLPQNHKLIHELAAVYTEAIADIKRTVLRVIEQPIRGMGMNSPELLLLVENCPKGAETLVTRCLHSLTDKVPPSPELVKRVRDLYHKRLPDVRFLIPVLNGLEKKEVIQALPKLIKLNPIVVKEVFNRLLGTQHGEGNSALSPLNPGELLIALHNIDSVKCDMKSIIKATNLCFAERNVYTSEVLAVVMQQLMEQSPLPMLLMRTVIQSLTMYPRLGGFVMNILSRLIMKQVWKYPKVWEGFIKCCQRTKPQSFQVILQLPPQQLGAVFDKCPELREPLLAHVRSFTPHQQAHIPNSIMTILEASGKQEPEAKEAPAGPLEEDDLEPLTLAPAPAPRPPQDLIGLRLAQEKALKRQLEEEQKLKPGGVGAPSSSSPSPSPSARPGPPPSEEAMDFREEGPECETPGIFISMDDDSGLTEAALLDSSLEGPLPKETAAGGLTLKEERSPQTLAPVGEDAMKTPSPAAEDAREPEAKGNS
In short, it runs like this:
as §1

The target in another data set is XRN1 (UniProt Q8IZH2). The method in brief: as §1
The next data set concerns the target T4, RBMS1 (UniProt P29558).
T4 sequence: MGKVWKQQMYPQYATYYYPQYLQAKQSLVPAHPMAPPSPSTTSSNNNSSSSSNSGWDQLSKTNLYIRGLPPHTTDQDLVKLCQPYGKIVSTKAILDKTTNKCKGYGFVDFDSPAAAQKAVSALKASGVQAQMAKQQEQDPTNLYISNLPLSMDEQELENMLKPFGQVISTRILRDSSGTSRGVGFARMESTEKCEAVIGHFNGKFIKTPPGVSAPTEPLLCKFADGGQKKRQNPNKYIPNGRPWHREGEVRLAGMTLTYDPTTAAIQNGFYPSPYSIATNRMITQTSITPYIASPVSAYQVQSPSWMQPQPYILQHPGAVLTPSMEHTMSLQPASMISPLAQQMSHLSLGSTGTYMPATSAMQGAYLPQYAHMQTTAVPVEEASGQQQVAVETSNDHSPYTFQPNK
In short, it runs like this: as §1

pKd: −log10 of the molar value.

Sequence of XRN1 (Q8IZH2 whole entry): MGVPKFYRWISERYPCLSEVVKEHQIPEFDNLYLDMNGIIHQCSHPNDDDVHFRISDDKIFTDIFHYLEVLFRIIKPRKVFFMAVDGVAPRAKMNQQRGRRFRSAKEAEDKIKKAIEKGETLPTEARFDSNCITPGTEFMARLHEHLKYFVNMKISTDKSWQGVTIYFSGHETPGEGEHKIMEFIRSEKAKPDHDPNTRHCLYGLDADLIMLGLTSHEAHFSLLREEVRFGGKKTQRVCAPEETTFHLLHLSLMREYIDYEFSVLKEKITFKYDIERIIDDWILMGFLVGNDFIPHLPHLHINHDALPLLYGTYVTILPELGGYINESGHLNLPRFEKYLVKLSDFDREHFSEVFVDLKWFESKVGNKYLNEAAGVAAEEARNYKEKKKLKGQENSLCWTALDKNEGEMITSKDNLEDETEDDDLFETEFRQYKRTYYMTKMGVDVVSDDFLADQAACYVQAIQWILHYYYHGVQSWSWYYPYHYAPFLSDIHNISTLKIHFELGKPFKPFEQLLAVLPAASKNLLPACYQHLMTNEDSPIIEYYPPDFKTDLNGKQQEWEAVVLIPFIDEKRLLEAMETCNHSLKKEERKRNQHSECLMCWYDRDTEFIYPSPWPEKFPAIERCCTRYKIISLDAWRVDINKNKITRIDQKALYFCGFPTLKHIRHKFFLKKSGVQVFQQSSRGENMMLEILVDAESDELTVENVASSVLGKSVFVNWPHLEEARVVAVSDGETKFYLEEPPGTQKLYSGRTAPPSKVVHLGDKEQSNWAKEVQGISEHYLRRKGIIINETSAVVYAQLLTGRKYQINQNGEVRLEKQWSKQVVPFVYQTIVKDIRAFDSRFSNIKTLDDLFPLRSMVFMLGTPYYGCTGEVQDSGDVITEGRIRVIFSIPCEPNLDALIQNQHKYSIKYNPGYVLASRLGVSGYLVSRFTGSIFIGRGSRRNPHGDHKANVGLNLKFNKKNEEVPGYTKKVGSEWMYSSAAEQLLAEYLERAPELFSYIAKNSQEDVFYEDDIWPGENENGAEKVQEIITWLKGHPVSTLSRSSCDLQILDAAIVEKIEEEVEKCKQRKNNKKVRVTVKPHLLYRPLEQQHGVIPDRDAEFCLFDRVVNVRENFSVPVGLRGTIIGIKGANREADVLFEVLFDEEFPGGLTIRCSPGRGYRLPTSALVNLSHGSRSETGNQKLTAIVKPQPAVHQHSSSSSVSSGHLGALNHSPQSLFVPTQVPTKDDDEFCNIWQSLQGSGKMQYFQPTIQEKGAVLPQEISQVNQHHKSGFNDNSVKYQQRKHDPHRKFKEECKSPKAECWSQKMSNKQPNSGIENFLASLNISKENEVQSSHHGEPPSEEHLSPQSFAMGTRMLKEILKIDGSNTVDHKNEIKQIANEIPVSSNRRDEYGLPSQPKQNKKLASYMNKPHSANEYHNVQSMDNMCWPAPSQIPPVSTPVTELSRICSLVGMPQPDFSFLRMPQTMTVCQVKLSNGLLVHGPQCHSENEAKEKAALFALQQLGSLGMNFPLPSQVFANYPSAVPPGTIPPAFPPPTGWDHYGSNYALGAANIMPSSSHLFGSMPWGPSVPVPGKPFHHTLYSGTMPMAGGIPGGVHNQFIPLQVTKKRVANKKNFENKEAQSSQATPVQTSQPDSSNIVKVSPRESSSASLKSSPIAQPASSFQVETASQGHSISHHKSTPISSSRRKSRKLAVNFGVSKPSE

Take AAUAAA: the pKd with LSM1 is 7.64; with GPATCH3, 6.71; in the data set with SYMPK, 7.90; with XRN1, 6.70; with RBMS1, 6.81.

On to UAUUUAU, for which the pKd with LSM1 is 6.78; with GPATCH3 it was 6.61; in the data set with SYMPK, 6.60; with XRN1, 6.97; with RBMS1 it was 6.94.

The term pKd denotes the Kd on a negative log10 scale, so that one unit is a factor of ten. A lower pKd goes with a large Kd.

(Values after the supplement of paper PMC6379048.)
